The record followed here is patent publication US8008547B2, “Glyphosate-N-acetyltransferase (GAT) genes” (E.I. duPont de Nemours, priority 2000, dated 2011).

The term Km denotes the substrate concentration at which the rate is half of its maximum.

A short description of the data set: Standard protocol for determination of kcat and KM (continuous spectrophotometric assay, Acetyl CoA hydrolysis at 235 nm). In kind it is biochemical. Conditions: purified protein, about 23° C., 0.2 mM acetyl CoA; for Kcat: 20 mM HEPES pH 6.8, 10% ethylene glycol; for Km: pH 6.8, glyphosate 0.125 to 10 mM. In a few lines:
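KM from initial rates over 0.125–10 mM glyphosate, fitted by Lineweaver-Burke transformation of Michaelis-Menten; kcat/KM computed as kcat divided by KM. Continuous spectrophotometric read of acetyl-CoA hydrolysis at 235 nm.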

B1: SEQ ID NO: 481: GAT polypeptide (protein)
chain: MLEVKPINAEDTYELRHRILRPNQPIEACMYETDLLRGSFHLGGFYRGQLISIASFHKAEHSDLEGQKQYQLRGMATLEGYREQKAGSTLIRHAEQILRKRGADMLWCNARTSAAGYYKRLGFSEQGEVFETPPVGPHILMYKRLT
modifications: 1_4D6
notes: GAT polypeptide
Take B1: the Kcat is 2.28 s⁻¹ and the Km was determined as 1400 µM.

B2: SEQ ID NO: 482: GAT polypeptide (protein)
chain: MIEVKPINAEDTYELRHRILRPNQPLEACMYETDLLRGSFHLGGFYRGKLISIASFHQAEHSDLQGQKQYQLRGMATLEGYREQKAGSTLIRHAEQLLRKRGADLLWCNARTSASGYYKRLGFSEHGEVFDTPPVGPHILMYKRLT
modifications: 1_4H1
notes: GAT polypeptide
Turning to B2, the Kcat turned out to be 3.93 s⁻¹ and the Km is 1200 µM.

B3: SEQ ID NO: 483: GAT polypeptide (protein)
chain: MLEVKPINAEETYELRHKILRPNQPLEACMYESDLLRGSFHLGGYYRGQLISIASFHQAEHSELEGQKQYQLRGMATLEGFREQKAGSTLIKHAEQILRKRGADMLWCNARTSAAGYYKKLGFSEHGEIFDTPPVGPHILMYKKLT
modifications: 1_5H5
notes: GAT polypeptide
As for B3, the Kcat amounted to 3.57 s⁻¹ and the Km was 510 µM.

B4: SEQ ID NO: 493: GAT polypeptide (protein)
chain: MIEVKPINAEDTYELRHRILRPNQPIEVCMYETDLLRGAFHLGGFYGGKLISIASFHQAEHSDLQGQKQYQLRGMATLEGYRDQKAGSSLIRHAEQILRKRGADMLWCNARTSASGYYKKLGFSEQGEIFETPPVGPHILMYKRIT
modifications: 4_1B10
notes: GAT polypeptide
Turning to B4, the Kcat was 1.285 s⁻¹.

B5: SEQ ID NO: 494: GAT polypeptide (protein)
chain: MIEVKPINAEDTYELRHRILRPNQPLEVCMYETDLLRGAFHLGGFYGGKLISIASFHQAEHSDLQGQKQYQLRGMATLEGYRDQKAGSSLIRHAEQILRKRGADMLWCNARTSASGYYKKLGFSEQGEIFETPPVGPHILMYKRIT
modifications: 5_2B3
notes: GAT polypeptide
In turn, B5 gave a Kcat of 0.9458 s⁻¹.

B6: SEQ ID NO: 495: GAT polypeptide (protein)
chain: MLXVKPINAEDTYELRHKILRPNQPXEVCMYEXDLLRGAFHLGGFYRGKLISIASFHQAEHSDLQGQKQYQLRGMATLEGYRDQKAGSSLIKHAEQILRERGADMLWCNARTSASGYYKKLGFSEQGEVFDTPPVGPHILMYKRLT
modifications: X: residue not identified in the source; ends and bridges not checked
notes: GAT polypeptide
Molecule B6 came in with a Kcat of 1.257 s⁻¹.

B7: SEQ ID NO: 486: GAT polypeptide (protein)
chain: MLEVKPINAEDTYELRHRILRPNQPIEACMYESDLLRGAFHLGGYYRGKLISIASFHQAEHSELQGQKQYQLRGMATLEGYREQKAGSSLVKHAEEILRKRGADLLWCNARTSASGYYKKLGFSEQGEIFETPPVGPHILMYKRIT
modifications: 3_11A10
notes: GAT polypeptide
As to B7, the Kcat was 2.2568 s⁻¹ and the Km was determined as 170 µM.

B8: SEQ ID NO: 491: GAT polypeptide (protein)
chain: MLEVKPINAEDTYELRHRILRPNQPIEACMYESDLLRGAFHLGGYYGGKLISIASFHQAEHSDLQGQKQYQLRGMATLEGYREQKAGSSLIKHAEEILRKRGADLLWCNARTSASGYYKKLGFSEQGEIFETPPVGPHILMYKRIT
modifications: 3_7F9
notes: GAT polypeptide
With B8, the Kcat came to 3.2258 s⁻¹ and the Km was 290 µM.

B9: SEQ ID NO: 492: GAT polypeptide (protein)
chain: MLEVKPINAEDTYELRHRILRPNQPIEVCMYESDLLRGAFHLGGYYRGKLISIASFHQAEHSELQGQKQYQLRGMATLEGYREQKAGSSLIKHAEEILRKRGADLLWCNARTSASGYYKKLGFSEQGEIFETPPVGPHILMYKRIT
modifications: 3_8G11
notes: GAT polypeptide
As for B9, the Kcat was 1.652 s⁻¹.

B10: SEQ ID NO: 490: GAT polypeptide (protein)
chain: MLEVKPINAEDTYELRHRILRPNQPIEACMYESDLLRGAFHLGGYYRGKLISIASFHQAEHPELQGQKQYQLRGMATLEGYREQKAGSSLIKHAEEILRKRGADLLWCNARTSASGYYKKLGFSEQGEVFETPPVGPHILMYKRIT
modifications: 3_6B1
notes: GAT polypeptide
For B10, the Kcat worked out at 4.3847 s⁻¹ and the Km amounted to 430 µM.

B11: SEQ ID NO: 489: GAT polypeptide (protein)
chain: MIEVKPINAEDTYELRHRILRPNQPIEACMYESDLLRGAFHLGGYYRGKLISIASFHQAEHSELQGQKQYQLRGMATLEGYREQKAGSSLIKHAEEILRKRGADLLWCNARTSASGYYKKLGFSEQGEIFETPPVGPHILMYKRIT
modifications: 3_6A10
notes: GAT polypeptide
For the molecule B11, the Kcat was determined as 2.108 s⁻¹ and the Km worked out at 660 µM.

B12: SEQ ID NO: 488: GAT polypeptide (protein)
chain: MLEVKPINAEDTYELRHKILRPNQPLEVCMYETDLLRGAFHLGGYYGGKLISIASFHQAEHSELQGQKQYQLRGMATLEGYREQKAGSSLIKHAEEILRKRGADLLWCNARTSASGYYKKLGFSEQGEIFETPPVGPHILMYKRIT
modifications: 3_15B2
notes: GAT polypeptide
Regarding B12, the Kcat was 1.7355 s⁻¹.

B13: SEQ ID NO: 487: GAT polypeptide (protein)
chain: MLEVKPINAEDTYELRHRILRPNQPIEACMYESDLLRGAFHLGGFYRGKLISIASFHQAEHSELQGQKQYQLRGMATLEGYREQKAGSSLIKHAEEILRKRGADLLWCNARTSASGYYKKLGFSEQGEIFETPPVGPHILMYKRLT
modifications: 3_14F6
notes: GAT polypeptide
Take B13: the Kcat worked out at 3.1405 s⁻¹ and the Km amounted to 250 µM.

B14: SEQ ID NO: 279: GAT polypeptide (protein)
chain: MIEVKPINAEDTYEIRHRILRPNQPLEACKYETDLLGGTFHLGGYYRGKLVSIASFHQAEHPELEGQKQYQLRGMATLEGYREQKAGSTLIRHAEELLRKKGADLLWCNARTSASGYYKKLGFSEQGEVYDIPPTGPHILMYKKLT
modifications: 10_3G5
notes: GAT polypeptide
For the molecule B14, the Kcat came out at 1.46 s⁻¹ and the Km turned out to be 2000 µM.

B15: SEQ ID NO: 484: GAT polypeptide (protein)
chain: MIEVKPINAEETYELRHRILRPNQPIEACMYESDLLRGSFHLGGFYRGKLISIASFHQAEHSDLEGQKQYQLRGMATLEGYRDQKAGSTLIKHAEELLRKRGADMLWCNARTSAAGYYKRLGFSEHGEIYETPPVGPHILMYKKIT
modifications: 1_6F12
notes: GAT polypeptide
Regarding B15, the Kcat stood at 3.48 s⁻¹ and the Km amounted to 14700 µM.

B16: SEQ ID NO: 485: GAT polypeptide (protein)
chain: MIEVKPINAEDTYELRHKILRPNQPIEACMYESDLLRGSFHLGGFYRGQLISIASFHQAEHSDLEGQKQYQLRGMATLEGYRDQKAGSSLIKHAEEILRKRGADLLWCNARTSAAGYYKRLGFSEQGEIFDTPPVGPHILMYKKIT
modifications: 1_6H6
notes: GAT polypeptide
Consider B16, for which the Kcat was found to be 4.57 s⁻¹ and the Km amounted to 1050 µM.
